Laboratory results published in the supplement of paper PMC9170038.

Columns and labels:
MS2 coat protein [1] = experiment: apparent KD of MS2 coat protein; designed switch direction (-1 OFF switch, 1 ON switch): 1; higher = weaker reporter binding
Outline: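 SNAP-549-labelled MS2 coat protein was titrated, doubling from 0.7 or 1.5 nM to 3 µM, over designed RNA switches transcribed on Illumina chips by stalled E. coli RNA polymerase. Runs were done without input, with 200 uM small-molecule ligand, or with an oligonucleotide input. Apparent KD is the per-design median over clusters of curve-fitted normalised fluorescence.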

MS2 coat protein [2] = experiment: apparent KD of MS2 coat protein; higher = weaker reporter binding; conditions: Eterna round: R107
Outline: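 With or without constant ligand, designed RNA switches in 100 mM Tris-HCl pH 7.5, 80 mM KCl and 4 mM MgCl2 were titrated with SNAP-549-labelled MS2 coat protein. Concentrations went up in twofold steps from 0.7 or 1.5 nM to 3 µM. The switches had been transcribed on-chip from Illumina sequencing clusters, and apparent KD is the per-design median of normalised cluster binding-curve fits.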

[3] = input ligand: microRNA oligo, concentration not stated
[4] = Eterna round: R95, input ligand: FMN 200 uM
[5] = Eterna round: R95, input ligand: microRNA oligo, concentration not stated
[6] = Eterna round: R95, input ligand: none
[7] = input ligand: theophylline 20 uM
[8] = input ligand: theophylline 2 mM
[9] = input ligand: tryptophan 2.4 mM

Sequence	apparent KD of MS2 coat protein (MS2 coat protein [1]; input ligand: FMN 200 uM) [nM]	apparent KD of MS2 coat protein (MS2 coat protein [1]; [3]) [nM]	apparent KD of MS2 coat protein (MS2 coat protein [1]; input ligand: none) [nM]	apparent KD of MS2 coat protein (MS2 coat protein [2]; input ligand: arginine 13.2 mM) [nM]	apparent KD of MS2 coat protein (MS2 coat protein [2]; [7]) [nM]	apparent KD of MS2 coat protein (MS2 coat protein [2]; [8]) [nM]	apparent KD of MS2 coat protein (MS2 coat protein [2]; [9]) [nM]	further results
AAACAGUCGCUGCGGCGACCACAUGAGGAUCACCCAUGUACAUAGGAUAUCGCCUAAAAUACUGGCGAGAAGGGUGAUUAAAGA [Vegeonor] (Eterna round: R96, puzzle: Same State NG 3)	90.4	12.4	55.9					
AUUUAACAAGCUUUUUGCUCGUCUUAUAAACAUGAGGAUCACCCAUGUAAUAGCGUGAGAGUAAUUAUAUAAAUAAU [JMF 86] (puzzle: Sensor for hsa-mir-208a)								apparent KD of MS2 coat protein (MS2 coat protein [1]; [4]): 16.4 nM; apparent KD of MS2 coat protein (MS2 coat protein [1]; [5]): 43 nM; apparent KD of MS2 coat protein (MS2 coat protein [1]; [6]): 15.4 nM
GGAGCCAAGGCAGGAUAUUCAUAUUAAUAACACAUGAGGAUCACCCAUGUGGCCAGAAGGCCAAGGGAGAAGGGCCAUGGCUCG [Xeonanis - 13 mod11] (Eterna round: R96, puzzle: Same State NG 2)	22.1	65.4	159					
AUUAAGAGCGUAGGAUAUGGGAAAGGAAGUGUACCAGAAGGACGAAUACAGCGUCCGGACAUGAGGAUCACCCAUGUAGGACGG [PowerStrip SSNG 1.18] (Eterna round: R96, puzzle: Same State NG 1)	10.4	23.9	56.2					
CCGUAGAUGGAAGGAUAUGGAGCCUUAUUGGCUCCAGAAGGUUCAAUACAUGAGGAUCACCCAUGUUCGGCGGUCAAUAGACCG [Eli NG1ss - 81] (Eterna round: R96, puzzle: Same State NG 1)	26.9	32	66.6					
CCAAAGUACAAUUUAGAUCUACAUGAGGAUCACCCAUGUACUGAGGAUAUCAGCUCGUUUAGAGCUGAGAAGGCAGAAUUAAUU [SSNG3/4-A3] (Eterna round: R96, puzzle: Same State NG 3)	135	111	224					
GCCGCGUUUCGCGCCUACAUGAGGAUCACCCAUGUUUGUAGGCAGGAUAUCGUUUGCUUUGCAAACGAGAAGGGCUGUUGUGGC [salish99_SSNG3_R04_012] (Eterna round: R96, puzzle: Same State NG 3)	29.9	47.2	50.2					
AAGAAGACGAACAAGGAUAUGUCAAAGGAAACAUGAGGAUCACCCAUGUAGAGAUUGGAAAAGAAACAGAAGGUGUACAGAGAGA [JR_SS2_Sub006] (puzzle: Same State 2)								apparent KD of MS2 coat protein (MS2 coat protein [1]; [4]): 18.7 nM; apparent KD of MS2 coat protein (MS2 coat protein [1]; [5]): 33.2 nM; apparent KD of MS2 coat protein (MS2 coat protein [1]; [6]): 24.5 nM
CAAGAAAACGCAGGAUAUACCCGGGCUACCCGGGUAGAAGGGUGACACAUGAGGAUCACCCAUGUACAUAGAAUUAGCUAUGGA [Soberaa] (Eterna round: R96, puzzle: Same State NG 1)	284	15.9	26.7					
CCGGUACAUGAGGAUCACCCAUGUUGCGGCAGGACAGGAUAUGGGCGAGAAUAUGUAGGCCCAGAAGGGUCAUCAC [Qure] (puzzle: Same State 1)								apparent KD of MS2 coat protein (MS2 coat protein [1]; [4]): 24.1 nM; apparent KD of MS2 coat protein (MS2 coat protein [1]; [5]): 42.1 nM; apparent KD of MS2 coat protein (MS2 coat protein [1]; [6]): 38.9 nM
AGAUCAUGACGAGGAUAUGCGACAUGAGGAUCACCCAUGUAUGUUGCAGGACGCGUACGUCCAAUGUAGAAGGCGUCGUGGUCA [JL SSNG2 1.05] (Eterna round: R96, puzzle: Same State NG 2)	22.8	65.1	88.7					
GCUAGUAUUAUUGUCAACAUGAGGAUCACCCAUGUAUGUUGGCAGGAUAUCGUUUGCUUUGCAAACGAGAAGGGCUAAACUAGC [JL SSNG3 1.04] (Eterna round: R96, puzzle: Same State NG 3)	61.2	145	231					
GCUGCAAGGGCAGGAUAUGGGUUCAGAGCGGAAGUGCGCUUUGAUACAUGAGGAUCACCCAUGUCCCAGAAGGGCCCAAACGGC [Beanti] (Eterna round: R96, puzzle: Same State NG 2)	17.3	99.3	123					
GGAGCCGGCCUAGGAUAUUUCAUACAAAAACAUGAGGAUCACCCAUGUAGGCCAGAAGGCCUUGGGAAGAAGGAGGUCGGCUCC [Loop Effect - C25] (Eterna round: R96, puzzle: Same State NG 2)	14.5	16.9	34.2					
GAGGGCGAAAGCAACAUGAGGAUCACCCAUGUUGUCGGAGGGCAGGAUAUCCGGCGAAAGCAGAAGGAGAAGGGUCGAAAAGAA [AK SSNG3-V2-39] (Eterna round: R96, puzzle: Same State NG 3)	15.5	13.1	21.4					
AGUCCAGCCUGAGCUGGACAAAAGCAUGUACAUGAGGAUCACCCAUGUUAUGUACAAGCUUUUUGCUCGUUUUAAUA [Zipper 49 - 15] (puzzle: Sensor for hsa-mir-208a)								apparent KD of MS2 coat protein (MS2 coat protein [1]; [4]): 191 nM; apparent KD of MS2 coat protein (MS2 coat protein [1]; [5]): 13.1 nM; apparent KD of MS2 coat protein (MS2 coat protein [1]; [6]): 199 nM

Sequence	apparent KD of MS2 coat protein (MS2 coat protein [1]; input ligand: FMN 200 uM) [nM]	apparent KD of MS2 coat protein (MS2 coat protein [1]; [3]) [nM]	apparent KD of MS2 coat protein (MS2 coat protein [1]; input ligand: none) [nM]	apparent KD of MS2 coat protein (MS2 coat protein [2]; input ligand: arginine 13.2 mM) [nM]	apparent KD of MS2 coat protein (MS2 coat protein [2]; [7]) [nM]	apparent KD of MS2 coat protein (MS2 coat protein [2]; [8]) [nM]	apparent KD of MS2 coat protein (MS2 coat protein [2]; [9]) [nM]	further results
AUUAUUGAUGCAGGAUAUGAUUAACAUGAGGAUCACCCAUGUGGUGUUGUGAGUAAGGAGAGUGAUCAGAAGGGCAUUUUUUUU [JMF's solution 23] (Eterna round: R96, puzzle: Same State NG 2)	747	435	436					
AGGACGAGCACAGGAUAUCCACGGAAAAGACGCGGAGAAGGGUGAAGUCAUGGAAAGAAAAGACAUGAGGAUCACCCAUGUAAA [Dibema] (Eterna round: R96, puzzle: Same State NG 1)	26.2	20.5	28.4					
AAGUGAUGGGUUAGUAACUGCUAGUAAGGACAUGAGGAUCACCCAUGUGAGUAACGAGCUUUUGCUCGUCUUAUAAA [JR_SHM208A_Sub020] (puzzle: Sensor for hsa-mir-208a)								apparent KD of MS2 coat protein (MS2 coat protein [1]; [4]): 89.7 nM; apparent KD of MS2 coat protein (MS2 coat protein [1]; [5]): 48.9 nM; apparent KD of MS2 coat protein (MS2 coat protein [1]; [6]): 110 nM
UGUGACAUGAGGAUCACCCAUGUAAGGGAAGGAGCGCCGAAUAAGGCAGGUAGGUCGCCCAAGAUAGAAGAAUAAUAAGAUUGUG [Arginine A Same State; Euphoria Solution]				20.8	39.9	27.9	28.3	apparent KD of MS2 coat protein (MS2 coat protein [2]; input ligand: none): 27.1 nM
CCGACAUGAGGAUCACCCAUGUGAACAGAUACCAGUCUGGUAAUAGACCCUUGGCAGCUGAACCAGGAAACUAUGGUGAUCCUGG [Theo A SS t3]				66	89.5	187	83.6	apparent KD of MS2 coat protein (MS2 coat protein [2]; input ligand: none): 69.8 nM
CUAAGAGCGGCGGCCGCCACUGGUAACCGAGAGGAGGAGCUUCUGAACAUGAGGAUCACCCAUGUCAGGACCGGGUCGUCUUAGA [Same State - Tryptophan B]				15.5	18.5	14.9	16.6	apparent KD of MS2 coat protein (MS2 coat protein [2]; input ligand: none): 13.8 nM
UAUCCACAUGAGGAUCACCCAUGUGAGGAAGGAGCGGUGAAUGCACCAGGUAGGUCGCCUUGCUGAGGACAGCCGGUGGAUUCGU [Exclusion - Arginine A (Freestyle 25)]				13.5	16.2	15.8	18.3	apparent KD of MS2 coat protein (MS2 coat protein [2]; input ligand: none): 12.4 nM
AAACAUUGCUCAGAUACCAGACAUGAGGAUCACCCAUGUACCAAGGUAAAGAAAUAACGUGUCCCUUGGCAGCUGAGCAAUGAAA [MAT - Exclusion Theophlline B - Mod of Eli - D10]				11.5	12.8		10.9	
CGGGCCGCUGCGGAUACCAGUUGAGCAUAGGUAGUGUAUGACAUGAGGAUCACCCAUGUUAACCCUUGGCAGCCGAGAGGGCAGA [theeternabot_exclusion_MS2_Theo_B_13]				10.4	20.2	15.4	10.2	apparent KD of MS2 coat protein (MS2 coat protein [2]; input ligand: none): 11.6 nM
CUACAUUUGUAGAAACCGGUCAACAAUAAUCGAGGACCGGUACGGCCGCCACUCGUAUAAUUUAUUACAUGAGGAUCACCCAUGU [Tryptophan A 2]				13.6	16.7	15.4		
ACUGGAGGUGGAAGGAGCGGGAGACAUGAGCAUCACAUGAGGAUCACCCAUGUAGGAUCAUCCCAGGUAGGUCGCCAUGUCGAAA [rtfemullin]				120	292	431	189	apparent KD of MS2 coat protein (MS2 coat protein [2]; input ligand: none): 276 nM
GCUAGUGGCAGAAGGAGCGGCAUACAUGCAAGUGACAUGAGGAUCACCCAUGUAAGGGAAUGCCAGGUAGGUCGCUGCCACUAGC [EAB NP+V+V2 #2 +-Same Structure]				36.2	89.6	89.2	64.2	apparent KD of MS2 coat protein (MS2 coat protein [2]; input ligand: none): 61.5 nM
AUAACAUGAGGAUCACCCAUGUAAGCUGAAGGAGCGCUGGAAACAGCAGGUAGGUCGCAGCGGCGACCUUCAUGGGUAAGGUCGC [(M1)-(M2)-(Arg1)-(Arg2)-(A)'-(M)'-(A)''_Design4]				33.1	41.2	40.5	30.4	apparent KD of MS2 coat protein (MS2 coat protein [2]; input ligand: none): 32.8 nM
GGUUACUCUACGGCCGCCACUGUAAUGUAAAGAUUCCUGUACAUGACAUGAGGAUCACCCAUGUGCAGGACCGGGUAGUGUAACC [Tryptophan B 20]				126	208	225		
CUAUUCUGUACGGCCGCCACUUCAACGUGUAAGCUGGUGGUCCACUACAUGAGGAUCACCCAUGUAAGGACCGGGUACGGCGCGG [theeternabot_exclusion_MS2_Trp_B_29]				12	16.6	69.4	40	apparent KD of MS2 coat protein (MS2 coat protein [2]; input ligand: none): 12.5 nM
